The NTF2 design screens of Basanta et al. (2020)

Assay: protease stability score; higher = more stable; yeast display proteolysis, trypsin and chymotrypsin;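 also: relative to predicted unfolded state with 0 unfolded-like and 1 meaning tenfold more protease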

| Sequence | protease stability score |
| --- | --- |
| DEDQEIVERFTSLINHLILTGDEEEMKKLLDPNARWIYGDKHIHGRDEFIELLRQIKNVKTRFYIRHIDVINGKLVMHVEIELEFNGKRDHLRQIIISEKVDGRWRAKEFETR | 0.66 |
| DEDQKAATRFTELLVRLLFTGDEEMWLQLADPRMILDFENHSEHGMKLVVKLLHETIERRGMRIDDMHHTHIEFQGEWVRVHVRVHERIGDKRISVEVEYKSLKVNGRWILHEIHIH | 0.372 |
| DEDQKEAEDMAELITKLINTGDEEHWLDRADPHMKVDIDGVESVGREEIERLLHELIRKWGVSKIESRNKHVTIINGRVHFRINIHVNGQEYLLILINDKVDGRWRVQETRVHIT | 1.63 |
| DEDQKETEEAIKELEKLSKTGNEHDFLRYFDPNMRVEIGDKEIWGRERALEIFHELGVKHIEVKRVDVQGDKIRMDTLLRVNGQELHTQVVALKINGQWILESYRVE | 1.09 |
| DEDQKFAMEVLELLVRAKVTGNEELLEKLLDPHTRVDINGREIHGWEEMLRILHEWRIRDLEFRVRDIHIIDGRLKIDGEERVEGEIDGRNMEIKYRTEVYYEKINGRWIVREMSVR | 1.75 |
| DEDREAAEFVVEHLLRALSTGNEEEFLSLLDPTVKWEIDGREYHGRELVSKILHEIRIKTTEFRSTRHEYQGDYLKLDGILHTTVEIDGKRKHLDVNLHMLILKYDGRWLLKSMSVR | 1.53 |
| DEDREAIELLVRLLITAHETGDEKILWDLMDPNVRYHQGNFELHGREEIMELESRLRKHLGINHISFRLHDMQHIGDKLILHGSLMFRIGDKEHHTEVDIIVIKINGKWLIESIFIR | 1.57 |
| DEDREAMEELVRRTLKASSTGDEELSDQLMDPNTRIEVNGKHLIGREMWIKFLVELRIIFHEVHVHDVRSVGDKVDADVHVIFELRINGKRIDIETRVTFYFRKINGRWLVKSIRFE | 1.07 |
| DEDREDARKIFHDFIRALNTGDEDTLAELLDPNTKIHIGEFNLIGMERVREWLQRVDHTHTHIKVRRVDVVNGQIIMDTETEIHIHIGDFTLEIQTRTEMVILKINGRWFIKRVNLI | 1.72 |
| DEDREDVKKYIEDLFHHLETGDFKEIEKNFDPNVRIFIDGRTIHGREEMVRWAEEMRYKLHEVRLHEVETQGEKIHIDLEIDIEIRIGDKRRRIRTRVIIFARKINGRWYVHQTDFR | 2.71 |
| DEDREEAIKTVEETVELIATGDFEKFEELVDPNVRIDVNGVDVIGREDWRRRVEEIRISMRDSDIKRVRSVNGVMHVDGRIELEVHVNGKTKNVNLRTHWYIVKINGRWLIHSVHFV | 1.99 |
| DEDREFAERVMKLLLHSLITGDFRRIHELADPHMRLHQGDFNIIGWDTIYEIMFRLGFRLDDFRIEHMDVVDGRVFLQGRSDGTINGRRTRTNVNIIIEKIDGRWYLRENEVR | 1.08 |
| DEDREFLIEMIELFMKFLLTGDWEQFAHLADPNDRFNVNGRDNHGREVWIKEVEEMRIHSLHIEDQDAFNGVIHVDFRVEGHFDGRTHIQKVEIHIRIVNGRVKSVEHHIH | 0.575 |
| DEDREHVERIVDILIHSFKTGDESFLENYLDPNARLEVGDKTHHGREEVKKLVIRWWHELGIKHVHVDKKTTIDGRIIIHLTILFNGRRFETELIWVIVDGVINKVDIRIQER | 1.45 |
| DEDREHVKWMIEKEIHAWRTGDEDELRKMLDPNVKFEQGDKRIHGREILMERMRKLGADHVEFQLHDIELQGEKVLLFIELRIHVNGRDIRLEIIIYLDKVNGQWHVRHYEIR | 0.745 |
| DEDREHVLKVTRLIWRAWMTGDFERISHLIDPNAKIDINGVDLHGREKLRHHLERVDYMHLESEHERRIDIIGDFVRIEFRFTVILIVNGQEVRDTTHVEIRARIVNGRLTEVYVHEH | 1.55 |
| DEDREIAERFLRRWSHDTLTGDEDSLRDMVDPNVRLEYGDFTFHGREEWLKFFREIRVEDSHVHHMHVFNGQARIKLDFRVRFNGKELRTKVTLSVDKVDGRWIIRSIHFE | 1.64 |
| DEDREIMERFIHILAEVWRTGDEHSLERLFDPNYKTLYDGRDVHGRETHIEILRTLGLERIEVRIKRFRVQGDKLHVNVELDVNGRTTEVEIRWRKIDGRWINHDMEIE | 1.39 |
| DEDREMLEELTRRLAHSVETGDEDHHSHLADPNTRETIHINGRTFEHHGWEIWSELLTRLGADHMHLDRVHVVNGRVEIRSRVHVGDKEYKVHILMVVINGRLKEVSVHIH | 0.721 |
| DEDREMVEEVIRERLEDLKTGDWKKLADLADPHVRLDVGDKEYHGREEFTKTFTDILRILGHSNIQTDLKHIDFFDGRLDVHQTVHIGDKTIHHQILFHKFDGKWKITEMRITIR | 0.928 |
| DEDREQAEEVIRSITEAMQTGDEHLWERMIDPNVRVIIDGRTYHGRLAWDLFRERYDVVHSSDSRIRHLRTYNGRVEVITQLRLDVEINGQRFETSMETHLIVLKFNGKWTVRRMEIH | 1.67 |
| DEDREQYREIMSHIWHSIHTGDEETQEDMADPDARFIIGDKTFIGWKQFYEKLREIRIHIDHVHIRHIEVQGDKFRVEFQIHRTIIYNGRNLHETTEAETHLHVVNGRLHSWSFRVR | 0.885 |
| DEDRERSEEIAKLILRSWLTGDERLLEELFDPHARVHINGKEFHGMEKFTEFSRHIRMDRVIIHDVKLIGDKMHIEQEIIITFDGRHLHVRSIIIVLKVNGQWVSRSLEIH | 1.16 |
| DEDRERSKKEFDTLVKSELTGDEDSYRRMADPDTRLVVGDKEYHGRSAMRYFLRQVDHMEHVIIRRVEYQGDYAHFDITVHGDINGRRDTVHFHLVMYKIDGRWVVHELIIK | 1.32 |
| DEDRESARWLFEIHSRVFETGDEDSLHRLFDPNARFDINGREVHGMDLWIHLLKHIRVSVKDMKIRRHKSVNGRLETDYDSTLSFHVGDKTIELEVRVILVSHKVNGRWEIKEEIVH | 1.24 |

| Sequence | protease stability score |
| --- | --- |
| DEDRESEEKAIKTWWHMVETGDEKLFKKLADPDTKMVINGVEKHGMETVHEFLNRVDHIRQFDIEDHRFYNGRLELHIRVDVEFNGRRHETERRVIASKVNGRWLLKEVIVH | 0.689 |
| DEDRESFEEVSRLLMEDIKTGDEDSWKKLADPHDRIVVGDKTSIGMETSIHLLRVLIHHIRFKDSKIKDIHSQGDKLHLETHLHGEVNGVEYHTFSHIVVRKVDGKWHLESVIII | 1 |
| DEDRESMLEHFRLLVEQTKTGNEESTEENIDPHVRLIFNGQEYHGRHEVARYLVEIWRRVDHVRIHLTHMEVYDGVMEIHGQYHLDFDGRHVTHEFRIIFTKVDGRWRIHELRVQ | 1.38 |
| DEDREVAENMVRLFIHFLLTGNEERLNQYFDPHTLLIVGDKRYHGMEESNKWIVELWTERVEIRHIEVDYYGDKVHATISGHHVGIVDGKRIETQVDFHFRIDKIDGRWVAREVEIRHD | 2.06 |
| DEDREWIERFNRILIESLTTGDEHTLKELIDPNARLVINGRDIHGREEFVRLLSEMGVKHFHVHDVKVVGNKAVTRGILYFNGREYDVDVFTRKIDGRWLYESLEVK | 2.02 |
| DEDRFETELAVDLWLRTLETGDEHFLHRLADPRVQLEYGNFHYHGRHEFLHWFHDLKRKYKNLRVDIRDVRDIDGRIILHTELKQGDKHIESKVYMEKYDGRWLIKSYEIR | 0.971 |
| DEDRHDVKRWLEFLVKLMETGDEEVLRTLADPNTRVDINGRDNHGWESVVTVLRELGANHIHHIEIKHLHIINGRVHIDMRVHRIQGDKTLDFDIHLHANKYNGRWHLKSVQIH | 1.24 |
| DEDRHYIEQALEILEHNIQTGNWEIIARLLDPNMRLHIGDKDIHGREESADIIRHWIHRFPNLRVRIDHFEIYGNKVIFRGTMDFDGQRHDISIFSHKVNGRWLIKSIEYR | 1.59 |
| DEDRIISEEAAKLFLHLLLTGDEKVFDEYLDPRTRLIIGDKEFIGRETLRKTMQEFRHKAGIDHMHIRDSRIELIDGRVVQHLEIHVRFNGKSEDRVIHVFIEKINGRWHIHFVEVKID | 1.53 |
| DEDRKEAERIARQTLHDLRTGNEDMLTKLLDPHARIDVNGVDNIGWEIIVKHVKERRHQWRIHHEHWRDYHFINGVIHIDLEVHIRVDGVDIRTETRVHILIINGRLREIRVEVD | 0.772 |
| DEDRKEMEEILRLYLEAFLTGDEKLLRHLVDPHVKLDINGVRLHGMDLLIKLLIHEARFFKGMKVEIRIHRVHVQGDKVENDTELILIFDGREFRRRTFLLWLKIDGRWLLESERIE | 1.45 |
| DEDRKHIHHMFELWVHFLHTGNEHQLINLVDPHVKLEIGDKHHHGWEQLETFERAFKKEFKHMKIRFELTDIRLINGRMEIDGRDHLHIGDKTIERHLHLVVTKVDGRWQIHSVIVD | 1.48 |
| DEDRKHMEQAITLLKRLWETGNEEDILKNLDPNVRFEVGEWVDHGRRSIEIFRERFKNLRVHDTRHKDRDVVDGRAHLHGEYNGEINGRLINTHVILVIEKVNGRWYFESIHIH | 1.19 |
| DEDRKHREHLSELFQKLWLTGDWRTLWRLLDPHVRLEVLIDGKRIEKIGRENISEMLHRFLEFLGVDHRELHDMEIQGDKVHLDERIHYNGREQKLHIEFKFINGRMHEIKIRYE | 1.58 |
| DEDRKHWETLLKIAFHLFRTGDEEKWERMFDPHARLHINGKDIHGREDIVHFLQEHLDHLWIEDVKVERMSVYNGVLHVDIRIHYRQGDKVYDVESSIDNIVIDGKSHRIRFDFH | 1.26 |
| DEDRKIFKLVFEITKHAWETGDEEHLDRLLDPNTRIEIGDKILHGREHIEEWVDRVDHLHLHHFRLDDYRYQGDKAIIHGHVNGTSVIDGRSERYTSTIDFIVLKVNGRWRLHSVRVT | 1.41 |
| DEDRKLFTEATHRLNNVLETGDEDSLLRLMDPNTRYKVNGVELIGREMVKHMFRILMHHWRVKSHDYHDIEIQGDWAVIDSRVDGVIDGRRTHTQLRVESIKIDGKWFDHEVTLE | 0.398 |
| DEDRKMAEHWIRIWYHLVETGDEEEINNFADPHTRMEVNGVEFHGRELVKHSNHKLLRDAGVDKIHVEIHEMRVIGNKVEIHGTIRFNGQEYHFILIVLKVNGRWVIESMKHE | 0.724 |
| DEDRKNEEIAEKIQLRVLKTGDEDELHHLVDPNVKLHIDGREFHGMELSTHLLSRWHEKYKGLKWRLRDSQSQGDFVIIHFHVHVNGKRLRFVVIARKVDGRWVVEEIELE | 1.4 |
| DEDRKTVELAERLLKEMFDTGDEHTMRSLLDPNVRSNIGDWEFIGMDELSRWFEEVLKKLGVDHRSLKIKRSHTIGDKVILRSTLEFQQGDKTMKVDMRLVATKINGRWTVEEVEMK | 0.81 |
| DEDRKVAEEVIRIITHESRTGDWDRISENLDPDARVEVDGRHVHGRERFVEFVLHARIEHSHVHDVSMINGRLKVDTELRGIWNGREIDTQVYIISLKIDGRWYLESIHIS | 1.34 |
| DEDRKYVEELMRKIWEAMHTGDEKFFNNLADPHYRLRIGDKNFIGRDEFHKFLRHIRMTVEDFQERDSDEIDGVIIIIGETTYIFIVNGQEKHHVVEVEIIIIKIDGRWLLHSVNIH | 1.27 |
| DEDRLREQATNFIEAMQTGDTKRVDEQIDKDAQLVVGEKKYEGREQISTFVKEMHHQFDHVRLQRVTVSGNKVLLDVVMDFNGKDLRINIVIHMNNGKISQVQVDYTNPEDAKTARG | 0.914 |
| DEDRQDAEYALRLWLETWVTGDEDTLLRLMDPHYRLEIGEYHRHGRENVVTFLRFLVEHLGIKHTHVEVHDLDSQGDKVRAHTTLHNKYNGVELVIDSEIILTKINGRWYFKSMHFG | 1.2 |
| DEDRRDAEEFIRLFHEAVQTGDEDTLRKFIDPRARIDVNGRILHGREEYLEWMREVLRFFKNVRFEVDLHDVKIVGDKIHVDTTLWTHFNGRDLELKTRVHLEKVNGVWRIKRIDFE | 0.77 |
